Measurements as given in IntAct's records for PubMed 31515488.

B1: Alpha-taxilin (Homo sapiens), P40222 (parent)
chain: MKNQDKKNGAAKQSNPKSSPGQPEAGPEGAQERPSQAAPAVEAEGPGSSQAPRKPEGAQARTAQSGALRDVSEELSRQLEDILSTYCVDNNQGGPGEDGAQGEPAEPEDAEKSRTYVARNGEPEPTPVVNGEKEPSKGDPNTEEIRQSDEVGDRDHRRPQEKKKAKGLGKEITLLMQTLNTLSTPEEKLAALCKKYAELLEEHRNSQKQMKLLQKKQSQLVQEKDHLRGEHSKAVLARSKLESLCRELQRHNRSLKEEGVQRAREEEEKRKEVTSHFQVTLNDIQLQMEQHNERNSKLRQENMELAERLKKLIEQYELREEHIDKVFKHKDLQQQLVDAKLQQAQEMLKEAEERHQREKDFLLKEAVESQRMCELMKQQETHLKQQLALYTEKFEEFQNTLSKSSEVFTTFKQEMEKMTKKIKKLEKETTMYRSRWESSNKALLEMAEEKTVRDKELEGLQVKIQRLEKLCRALQTERNDLNKRVQDLSAGGQGSLTDSGPERRPEGPGAQAPSSPRVTEAPCYPGAPSTEASGQTGPQEPTSARA
B2: Ropporin-1A (Homo sapiens), Q9HAT0 (parent)
chain: MAQTDKPTCIPPELPKMLKEFAKAAIRVQPQDLIQWAADYFEALSRGETPPVRERSERVALCNRAELTPELLKILHSQVAGRLIIRAEELAQMWKVVNLPTDLFNSVMNVGRFTEEIEWLKFLALACSALGVTITKTLKIVCEVLSCDHNGGSPRIPFSTFQFLYTYIAKVDGEISASHVSRMLNYMEQEVIGPDGIITVNDFTQNPRVQLE

Variants of: B1
Details: with cc136_human CCDC136, Q96JN2
Sequence of cc136_human CCDC136, Q96JN2 (Q96JN2 whole entry): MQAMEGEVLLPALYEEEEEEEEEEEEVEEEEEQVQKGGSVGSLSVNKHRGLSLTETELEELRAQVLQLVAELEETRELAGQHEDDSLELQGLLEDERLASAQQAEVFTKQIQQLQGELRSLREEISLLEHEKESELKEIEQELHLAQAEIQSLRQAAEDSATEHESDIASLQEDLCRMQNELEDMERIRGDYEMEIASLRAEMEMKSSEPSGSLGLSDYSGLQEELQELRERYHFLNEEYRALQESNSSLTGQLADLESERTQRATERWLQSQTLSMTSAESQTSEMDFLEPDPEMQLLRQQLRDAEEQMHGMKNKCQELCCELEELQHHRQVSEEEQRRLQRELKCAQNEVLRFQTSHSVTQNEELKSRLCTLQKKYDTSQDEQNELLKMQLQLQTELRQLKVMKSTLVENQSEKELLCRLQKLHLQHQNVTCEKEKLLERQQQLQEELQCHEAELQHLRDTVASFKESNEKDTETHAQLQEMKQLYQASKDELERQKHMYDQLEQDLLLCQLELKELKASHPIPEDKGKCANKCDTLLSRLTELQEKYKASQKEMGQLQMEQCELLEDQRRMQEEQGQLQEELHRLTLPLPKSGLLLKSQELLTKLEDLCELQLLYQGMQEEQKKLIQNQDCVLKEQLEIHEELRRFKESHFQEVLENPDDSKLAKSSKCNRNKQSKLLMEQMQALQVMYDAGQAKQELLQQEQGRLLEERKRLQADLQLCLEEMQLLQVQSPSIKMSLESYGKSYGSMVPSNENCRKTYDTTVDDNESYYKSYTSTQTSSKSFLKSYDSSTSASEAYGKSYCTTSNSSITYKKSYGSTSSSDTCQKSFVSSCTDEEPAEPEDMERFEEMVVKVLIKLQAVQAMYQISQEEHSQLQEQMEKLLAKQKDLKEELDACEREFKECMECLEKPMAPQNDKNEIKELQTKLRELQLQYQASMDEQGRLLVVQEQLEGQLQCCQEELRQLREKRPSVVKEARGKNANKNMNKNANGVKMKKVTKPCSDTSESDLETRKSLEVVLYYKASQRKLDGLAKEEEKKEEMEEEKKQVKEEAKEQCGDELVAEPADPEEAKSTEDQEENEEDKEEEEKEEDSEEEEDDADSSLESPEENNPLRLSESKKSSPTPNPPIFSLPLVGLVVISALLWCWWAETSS

Variant | effect of a mutation on the interaction
P541S | with no effect
S514R | with no effect

Variants of: B1
Details: with tfp11_human TFIP11, Q9UBB9
Sequence of tfp11_human TFIP11, Q9UBB9 (Q9UBB9 whole entry): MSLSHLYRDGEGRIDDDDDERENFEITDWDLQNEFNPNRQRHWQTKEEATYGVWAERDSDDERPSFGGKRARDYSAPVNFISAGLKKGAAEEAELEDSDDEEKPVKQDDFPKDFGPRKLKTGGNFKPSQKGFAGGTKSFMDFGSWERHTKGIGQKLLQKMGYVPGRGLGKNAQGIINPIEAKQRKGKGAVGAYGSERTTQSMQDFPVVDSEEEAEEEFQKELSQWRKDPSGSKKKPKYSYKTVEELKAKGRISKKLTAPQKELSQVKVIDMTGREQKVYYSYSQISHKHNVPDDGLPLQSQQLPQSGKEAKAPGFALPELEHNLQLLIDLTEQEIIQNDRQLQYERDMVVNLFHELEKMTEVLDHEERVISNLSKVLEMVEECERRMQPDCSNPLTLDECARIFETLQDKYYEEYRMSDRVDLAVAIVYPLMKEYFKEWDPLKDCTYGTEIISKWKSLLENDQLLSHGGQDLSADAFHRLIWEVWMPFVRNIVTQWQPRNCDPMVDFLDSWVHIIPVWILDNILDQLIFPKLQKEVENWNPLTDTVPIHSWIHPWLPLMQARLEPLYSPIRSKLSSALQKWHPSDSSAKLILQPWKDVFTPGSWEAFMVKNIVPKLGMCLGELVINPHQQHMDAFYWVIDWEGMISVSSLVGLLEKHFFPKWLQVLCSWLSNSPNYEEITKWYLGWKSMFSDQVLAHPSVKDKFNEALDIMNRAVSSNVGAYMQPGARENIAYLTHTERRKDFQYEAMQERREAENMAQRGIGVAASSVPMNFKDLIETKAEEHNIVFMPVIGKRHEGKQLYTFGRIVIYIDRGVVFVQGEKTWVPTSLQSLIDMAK

Variant | effect of a mutation on the interaction
P541S | with no effect
R154G | disrupting interaction strength
S514R | with no effect

Variants of: B1
Details: with ndc80_human NDC80, O14777
Sequence of ndc80_human NDC80, O14777 (O14777 whole entry): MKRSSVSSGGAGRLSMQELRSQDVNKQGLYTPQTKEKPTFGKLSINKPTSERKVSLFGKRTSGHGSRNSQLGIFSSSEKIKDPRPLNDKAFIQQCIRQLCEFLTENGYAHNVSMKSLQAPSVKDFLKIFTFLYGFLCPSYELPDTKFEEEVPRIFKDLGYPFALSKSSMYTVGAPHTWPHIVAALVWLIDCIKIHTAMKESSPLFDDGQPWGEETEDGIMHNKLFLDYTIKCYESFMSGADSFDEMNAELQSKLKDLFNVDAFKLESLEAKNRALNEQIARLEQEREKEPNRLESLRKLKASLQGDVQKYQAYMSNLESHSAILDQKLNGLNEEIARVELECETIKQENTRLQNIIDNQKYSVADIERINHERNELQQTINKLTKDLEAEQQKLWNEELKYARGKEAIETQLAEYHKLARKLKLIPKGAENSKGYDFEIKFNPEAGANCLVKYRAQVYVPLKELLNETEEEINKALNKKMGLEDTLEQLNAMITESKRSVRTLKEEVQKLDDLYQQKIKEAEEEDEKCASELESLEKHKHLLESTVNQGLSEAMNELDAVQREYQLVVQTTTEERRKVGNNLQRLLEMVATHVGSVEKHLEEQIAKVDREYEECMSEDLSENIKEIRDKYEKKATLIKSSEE

Variant | effect of a mutation on the interaction
P541S | with no effect
R154G | disrupting interaction strength
S514R | with no effect

Variants of: B1
Details: with cdr2_human CDR2, Q01850

Variant | effect of a mutation on the interaction
R154G | disrupting interaction strength

Variants of: B1
Details: with lipa1_human PPFIA1, Q13136

Variant | effect of a mutation on the interaction
R154G | with no effect

Variants of: B2
Details: with lnx1_human LNX1, Q8TBB1
Sequence of lnx1_human LNX1, Q8TBB1 (Q8TBB1 whole entry): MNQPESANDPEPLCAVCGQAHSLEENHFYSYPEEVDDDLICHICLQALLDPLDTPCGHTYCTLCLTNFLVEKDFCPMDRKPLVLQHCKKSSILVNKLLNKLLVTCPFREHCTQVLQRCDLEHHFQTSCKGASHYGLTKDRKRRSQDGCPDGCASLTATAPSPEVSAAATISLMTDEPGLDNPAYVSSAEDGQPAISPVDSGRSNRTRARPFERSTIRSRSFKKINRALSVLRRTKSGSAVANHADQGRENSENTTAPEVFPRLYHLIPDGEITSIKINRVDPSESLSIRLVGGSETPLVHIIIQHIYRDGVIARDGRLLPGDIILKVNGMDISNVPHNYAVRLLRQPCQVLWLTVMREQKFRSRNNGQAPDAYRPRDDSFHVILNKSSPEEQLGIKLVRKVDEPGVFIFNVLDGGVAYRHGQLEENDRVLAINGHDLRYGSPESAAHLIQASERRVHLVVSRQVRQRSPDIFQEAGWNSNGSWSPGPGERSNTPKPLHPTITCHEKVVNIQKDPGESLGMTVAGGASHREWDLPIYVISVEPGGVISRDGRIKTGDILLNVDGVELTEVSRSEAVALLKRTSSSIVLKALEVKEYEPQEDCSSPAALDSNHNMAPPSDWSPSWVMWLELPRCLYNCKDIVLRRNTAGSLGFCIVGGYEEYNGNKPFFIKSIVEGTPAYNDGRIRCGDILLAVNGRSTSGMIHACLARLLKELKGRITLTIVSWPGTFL

Variant | effect of a mutation on the interaction
C62W | with no effect

Variants of: B2
Details: with hnrl1_human HNRNPUL1, Q9BUJ2
Sequence of hnrl1_human HNRNPUL1, Q9BUJ2 (Q9BUJ2 whole entry): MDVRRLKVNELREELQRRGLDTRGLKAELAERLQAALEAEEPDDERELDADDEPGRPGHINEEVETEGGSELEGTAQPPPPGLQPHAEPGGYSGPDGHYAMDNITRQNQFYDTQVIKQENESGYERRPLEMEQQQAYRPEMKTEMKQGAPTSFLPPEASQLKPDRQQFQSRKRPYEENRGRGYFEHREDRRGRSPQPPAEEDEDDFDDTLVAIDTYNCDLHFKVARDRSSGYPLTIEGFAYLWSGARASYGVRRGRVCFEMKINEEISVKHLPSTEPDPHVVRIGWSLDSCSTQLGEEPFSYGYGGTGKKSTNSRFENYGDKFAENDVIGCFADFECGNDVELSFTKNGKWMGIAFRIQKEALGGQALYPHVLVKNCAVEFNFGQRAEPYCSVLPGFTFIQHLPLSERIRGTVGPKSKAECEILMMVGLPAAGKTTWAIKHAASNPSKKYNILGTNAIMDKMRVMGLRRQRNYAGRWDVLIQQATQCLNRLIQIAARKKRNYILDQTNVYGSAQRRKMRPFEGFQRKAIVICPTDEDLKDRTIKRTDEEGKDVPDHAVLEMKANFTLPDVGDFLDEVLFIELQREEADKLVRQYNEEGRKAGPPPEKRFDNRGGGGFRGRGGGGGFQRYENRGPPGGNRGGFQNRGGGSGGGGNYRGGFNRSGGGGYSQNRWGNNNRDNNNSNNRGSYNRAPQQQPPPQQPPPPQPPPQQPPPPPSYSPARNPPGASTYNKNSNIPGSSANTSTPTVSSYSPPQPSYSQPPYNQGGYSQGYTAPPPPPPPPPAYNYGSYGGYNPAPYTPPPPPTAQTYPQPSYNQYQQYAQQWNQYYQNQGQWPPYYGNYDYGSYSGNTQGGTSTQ

Variant | effect of a mutation on the interaction
C62W | with no effect

Variants of: B2
Details: with aapk1_human PRKAA1, Q13131
Sequence of aapk1_human PRKAA1, Q13131 (Q13131 whole entry, looked up): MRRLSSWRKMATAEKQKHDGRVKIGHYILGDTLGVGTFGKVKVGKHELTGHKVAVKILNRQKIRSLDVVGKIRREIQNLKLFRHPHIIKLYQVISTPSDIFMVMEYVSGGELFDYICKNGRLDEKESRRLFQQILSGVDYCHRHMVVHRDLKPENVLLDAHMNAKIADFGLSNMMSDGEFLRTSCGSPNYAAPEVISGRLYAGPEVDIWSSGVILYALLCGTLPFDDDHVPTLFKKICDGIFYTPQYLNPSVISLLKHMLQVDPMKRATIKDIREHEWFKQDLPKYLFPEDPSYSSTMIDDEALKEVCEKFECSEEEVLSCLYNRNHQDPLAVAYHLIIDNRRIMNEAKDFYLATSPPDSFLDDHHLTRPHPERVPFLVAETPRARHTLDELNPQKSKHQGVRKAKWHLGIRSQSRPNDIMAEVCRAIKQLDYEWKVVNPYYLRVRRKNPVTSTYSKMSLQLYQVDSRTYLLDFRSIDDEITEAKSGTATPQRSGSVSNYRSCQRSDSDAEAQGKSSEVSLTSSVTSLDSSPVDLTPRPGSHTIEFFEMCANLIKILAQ

Variant | effect of a mutation on the interaction
C62W | with no effect
